This assay deals with T1, human β-globin polypeptide (product of the human β-globin transgene) (human, UniProt P68871 2-147).
T1 construct: Two copies stand in each hemoglobin tetramer (α2β2); also called hβ
Nature of the assay: nondenaturing isoelectric focusing of transgenic mouse hemolysate; band excised and its chains identified on a denaturing cellulose acetate strip. From the text:
Human α and β-globin mRNA detected in lung is the result of incomplete perfusion. Mouse α and β-globin mRNA are also observed in this non-erythroid tissue. (B) Nondenaturing, isoelectric focusing of transgenic mouse hemolysates. Hemolysates of control mouse (lane 1) human (lane 4) and transgenic mouse (lanes 2 and 3) blood were run on a native agarose isoelectric focusing gel and photographed without staining. (C) Denaturing cellulose acetate strip electrophoresis of transgenic mouse hemogobins. Hemoglobins were denatured in alkaline-urea buffer, electrophoresed on cellulose acetate strips, and stained with imido black.
To determine whether complete human hemoglobins were formed, we separated hemolysates of the blood of animals from two different transgenic lines by non-denaturing ioslectric focusing (IEF) (FIG. 14B). The first lane is a mouse control and the last lane is a normal human sample. The predominant band in each of the controls is the major adult hemoglobin, mouse α_2β_2 or human α_2β_2, respectively.

T1 sequence (P68871 2-147 limits assumed): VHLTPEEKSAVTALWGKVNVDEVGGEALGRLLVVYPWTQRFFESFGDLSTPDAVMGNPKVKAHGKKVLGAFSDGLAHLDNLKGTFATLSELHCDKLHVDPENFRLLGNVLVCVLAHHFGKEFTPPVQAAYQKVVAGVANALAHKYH

B1: mouse α-globin polypeptide (endogenous) (other)
chain: not shown
notes: Endogenous chain in the red blood cells of the transgenic mice; also called mα
As to B1, the binding result is “binds”.

B2: human α-globin polypeptide (product of the human α1-globin transgene) (other)
chain: not shown
notes: Two copies stand in each hemoglobin tetramer (α2β2); also called hα
With B2, the binding result is on record as “binds”.

Source of the values: US6613957 (UAB RESEARCH FOUNDATION, dated 2003).
